According to US20080219971A1 (VACCINEX, published 2008):
Substitutions are numbered along the chain they refer to. Names may count otherwise.

T1: human CD100-Fc (human, UniProt Q92854 22-734, limits assumed)
T1 construct: also called CD100-Fc antigen
T1 sequence (looked up): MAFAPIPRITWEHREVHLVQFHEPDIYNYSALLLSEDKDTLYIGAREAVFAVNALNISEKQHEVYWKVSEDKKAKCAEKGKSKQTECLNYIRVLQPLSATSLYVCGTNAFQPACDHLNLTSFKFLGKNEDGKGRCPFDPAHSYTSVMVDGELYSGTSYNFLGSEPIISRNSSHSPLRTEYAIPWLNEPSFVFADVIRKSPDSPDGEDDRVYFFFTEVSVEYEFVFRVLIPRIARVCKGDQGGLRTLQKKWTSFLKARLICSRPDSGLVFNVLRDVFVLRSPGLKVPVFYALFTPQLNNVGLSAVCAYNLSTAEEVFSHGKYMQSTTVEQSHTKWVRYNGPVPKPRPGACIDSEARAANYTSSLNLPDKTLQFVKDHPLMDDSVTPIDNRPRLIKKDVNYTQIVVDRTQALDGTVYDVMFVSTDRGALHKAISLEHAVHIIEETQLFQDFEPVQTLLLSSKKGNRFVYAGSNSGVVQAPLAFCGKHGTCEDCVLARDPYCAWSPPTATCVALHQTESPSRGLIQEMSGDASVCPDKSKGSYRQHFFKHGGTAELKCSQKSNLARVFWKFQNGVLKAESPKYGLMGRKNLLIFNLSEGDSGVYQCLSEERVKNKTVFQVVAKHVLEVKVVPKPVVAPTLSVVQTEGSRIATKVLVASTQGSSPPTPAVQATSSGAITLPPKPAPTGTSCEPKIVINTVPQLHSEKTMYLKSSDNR

T2: Human CD100 (human, UniProt Q92854 22-734, limits assumed)
T2 construct: also called SEMA4D; Hu CD100
T2 sequence (looked up): T1 sequence (looked up)

B1: BD16 (antibody, V domains shown)
VH: EVQLQQSGPELVKPGASVKMSCKASGYTFTDYYMDWVKQSHGESFEWIGRVNPYHGGATYNQKFKGKATLTVDKSSRTAYMELNSLTYEDSAVYYCAREENSYDGYYGMDYWGQGTTVTVSS
VL: DIVLTQSPSSLSVSAGEKVTMDCKSSQSLFNSGNQKNYLAWYHQKPGQPPKLLIYGASTRESGVPDRFTGSGSGTDFTLTISSVQAEDLAVYYCQNDHTYPYTFGGGTKLEIK
notes: Murine hybridoma anti-human CD100 antibody; also called mouse BD16; BD16 mouse MAb
B2: MAb 301 (antibody, human IgG1, V domains shown)
VH: B1 VH
VL: B1 VL
notes: Chimeric, human IgG1, human kappa constant domain; also called chimeric BD16; H387/L124
B3: MAb 657 (antibody, human IgG1, V domains shown)
VH: QVQLVQSGAEVKKPGSSVKVSCKASGYTFTDYYMDWVRQAPGQGLEWIGRVNPYHGGATYNQKFKGKATITVDKSTSTAYMELSSLRSEDTAVYYCAREENSYDGYYGMDYWGQGTLVTVSS
VL: DIVMTQSPLSLPVSPGEPATINCKSSQSLFNSGNQKNYLAWYLQKPGQPPKLLIYGASTRESGVPDRFSGSGSGTDFTLTISSLQAEDVAVYYCQNDHTYPYTFGQGTKLEIK
notes: Humanized BD16, human IgG1; also called H1235/L284
B4: MAb 1656 (antibody, human IgG1, V domains shown)
VH: B3 VH with I48M, K67R, A68V, V72A
VL: B3 VL
notes: Humanized BD16, fully human frameworks, human IgG1; also called H1651/L284
B5: MAb 1807 (antibody, human IgG4, V domains shown)
VH: B3 VH
VL: B3 VL
notes: Humanized BD16, human IgG4; also called H1235/L284
B6: MAb 2202 (antibody, V domains shown)
VH: B3 VH with I48M, G57F, K67R, A68V, V72A
VL: B3 VL
notes: H1651 mutant VH combined with L284; also called H1651 G57F with L284
B7: MAb 2208 (antibody, V domains shown)
VH: B3 VH with I48M, A58G, K67R, A68V, V72A
VL: B3 VL
notes: H1651 mutant VH combined with L284; also called H1651 A58G with L284
B8: MAb 2163 (antibody, V domains shown)
VH: B3 VH with D31K, I48M, K67R, A68V, V72A
VL: B3 VL
notes: H1651 mutant VH combined with L284; also called H1651 D31K with L284
B9: MAb 2220 (antibody, V domains shown)
VH: B3 VH with I48M, Y60F, K67R, A68V, V72A
VL: B3 VL
notes: H1651 mutant VH combined with L284; also called H1651 Y60F with L284
B10: MAb 2216 (antibody, V domains shown)
VH: B3 VH with I48M, T59F, K67R, A68V, V72A
VL: B3 VL
notes: H1651 mutant VH combined with L284; also called H1651 T59F with L284
B11: MAb 2144 (antibody, V domains shown)
VH: B3 VH with Q6A, I48M, K67R, A68V, V72A
VL: B3 VL
notes: H1651 mutant VH combined with L284; also called H1651 Q6A with L284
B12: MAb 2219 (antibody, V domains shown)
VH: B3 VH with I48M, T59W, K67R, A68V, V72A
VL: B3 VL
notes: H1651 mutant VH combined with L284; also called H1651 T59W with L284
B13: MAb 2224 (antibody, V domains shown)
VH: B3 VH with I48M, Y60P, K67R, A68V, V72A
VL: B3 VL
notes: H1651 mutant VH combined with L284; also called H1651 Y60P with L284
B14: MAb 2225 (antibody, V domains shown)
VH: B3 VH with I48M, Y60V, K67R, A68V, V72A
VL: B3 VL
notes: H1651 mutant VH combined with L284; also called H1651 Y60V with L284
B15: MAb 2207 (antibody, V domains shown)
VH: B3 VH with I48M, G57Y, K67R, A68V, V72A
VL: B3 VL
notes: H1651 mutant VH combined with L284; also called H1651 G57Y with L284
B16: MAb 2218 (antibody, V domains shown)
VH: B3 VH with I48M, T59V, K67R, A68V, V72A
VL: B3 VL
notes: H1651 mutant VH combined with L284; also called H1651 T59V with L284
B17: MAb 2206 (antibody, V domains shown)
VH: B3 VH with I48M, G57W, K67R, A68V, V72A
VL: B3 VL
notes: H1651 mutant VH combined with L284; also called H1651 G57W with L284
B18: MAb 2191 (antibody, V domains shown)
VH: B3 VH with K23T, I48M, K67R, A68V, V72A, D104T
VL: B3 VL
notes: Double mutant of H1651 with L284; also called H1651 K23T D104T with L284

Biological target: T1, human CD100-Fc
Assay: competition ELISA on CD100-Fc: BD16 titrated against 5 ng/ml MAb 301, bound MAb 301 detected with anti-human Kappa HRP
Protocol: (§1) Competition ELISA assays were then performed. The ELISA plate was coated with CD100-Fc antigen, and BD16 or BB18 were allowed to bind individually to CD100. […] The cells were washed and antibody activity detected. Bound chimeric or human MAb was detected using anti-human Kappa HRP.

Row | Binder | IC50 (read off the curve) [µg/mL]
1 | B1 | ~0.02

Biological target: T3, streptavidin (UniProt P22629 37-163, limits assumed)
T3 construct: Negative control antigen
Assay: ELISA

T3 sequence (P22629 37-163 limits assumed): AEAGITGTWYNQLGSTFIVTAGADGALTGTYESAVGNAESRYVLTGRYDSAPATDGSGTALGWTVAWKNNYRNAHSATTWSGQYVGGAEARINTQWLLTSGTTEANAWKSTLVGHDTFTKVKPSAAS

Row | Binder | binding result
2 | B2 | no binding
3 | B3 | no binding
4 | B4 | no binding
5 | B5 | no binding

Biological target: T4, huErb2-Fc (human, UniProt P04626 23-652)
T4 construct: Negative control antigen; also called huErb2-Fc antigen
Assay: ELISA

Row | Binder | binding result
6 | B4 | no binding
7 | B5 | no binding

Biological target: T5, human serum albumin (human, UniProt P02768 25-609)
T5 construct: Negative control antigen
Assay: ELISA

T5 sequence (P02768 25-609 limits assumed): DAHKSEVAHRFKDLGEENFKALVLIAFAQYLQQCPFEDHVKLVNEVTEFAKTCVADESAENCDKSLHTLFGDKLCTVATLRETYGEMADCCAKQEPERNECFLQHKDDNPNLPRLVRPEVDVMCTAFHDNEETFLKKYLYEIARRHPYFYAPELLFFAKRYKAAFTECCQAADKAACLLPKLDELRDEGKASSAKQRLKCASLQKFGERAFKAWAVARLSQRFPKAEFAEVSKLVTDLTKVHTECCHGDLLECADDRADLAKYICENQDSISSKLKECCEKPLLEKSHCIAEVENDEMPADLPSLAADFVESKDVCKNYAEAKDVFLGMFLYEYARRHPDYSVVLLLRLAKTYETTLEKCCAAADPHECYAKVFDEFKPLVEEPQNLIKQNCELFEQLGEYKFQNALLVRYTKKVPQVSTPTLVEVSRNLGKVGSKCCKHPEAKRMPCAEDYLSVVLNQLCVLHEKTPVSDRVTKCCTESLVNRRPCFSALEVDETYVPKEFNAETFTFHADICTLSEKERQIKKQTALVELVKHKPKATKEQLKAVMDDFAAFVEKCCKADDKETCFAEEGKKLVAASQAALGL

Row | Binder | binding result
8 | B2 | no binding
9 | B3 | no binding
10 | B4 | no binding
11 | B5 | no binding

Biological target: T6, BSA (UniProt P02769 25-607)
T6 construct: Negative control antigen
Assay: ELISA

T6 sequence (P02769 25-607 limits assumed): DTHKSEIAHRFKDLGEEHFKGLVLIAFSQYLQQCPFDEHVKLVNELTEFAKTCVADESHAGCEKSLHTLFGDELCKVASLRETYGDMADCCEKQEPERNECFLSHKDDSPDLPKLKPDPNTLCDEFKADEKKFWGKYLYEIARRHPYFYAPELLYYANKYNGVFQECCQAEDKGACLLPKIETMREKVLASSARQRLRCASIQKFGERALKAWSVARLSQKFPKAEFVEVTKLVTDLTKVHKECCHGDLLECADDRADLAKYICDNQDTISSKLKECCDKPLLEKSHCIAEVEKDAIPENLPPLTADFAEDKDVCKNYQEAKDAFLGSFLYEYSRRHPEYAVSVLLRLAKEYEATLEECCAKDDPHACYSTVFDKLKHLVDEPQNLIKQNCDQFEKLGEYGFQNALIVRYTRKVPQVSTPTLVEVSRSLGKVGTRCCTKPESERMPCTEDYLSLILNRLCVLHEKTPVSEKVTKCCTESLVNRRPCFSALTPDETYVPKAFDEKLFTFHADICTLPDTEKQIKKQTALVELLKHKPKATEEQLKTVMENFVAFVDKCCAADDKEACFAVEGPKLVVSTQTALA

Row | Binder | binding result
12 | B2 | no binding
13 | B3 | no binding
14 | B4 | no binding
15 | B5 | no binding

Biological target: T2, Human CD100
Assay: affinity testing, method and unit not printed in Example 10 (nM as in Table 3); mutant value, before the parentheses

Row | Binder | Kd [nM]
16 | B6 | 0.06
17 | B7 | 0.08
18 | B8 | 0.06
19 | B9 | 0.04
20 | B10 | 0.06
21 | B11 | 0.43

Biological target: T4, huErb2-Fc
Assay: ELISA on huErb2-Fc antigen (Neg Ctrl)

Row | Binder | binding result
22 | B2 | no binding (tested: 500 ng/ml)
23 | B3 | no binding (tested: 500 ng/ml)

Biological target: T1, human CD100-Fc
Assay: ELISA on CD100-Fc antigen

Row | Binder | EC50 (read off the curve) [µg/mL]
24 | B2 | ~0.02
25 | B3 | ~0.03

Biological target: T2, Human CD100
Assay: ELISA method of Friguet et al.; column head 'Affinity (nM) IC50 ELISA'; antigen not named
Protocol: Antibody affinity was measured according to the ELISA method described in Friguet et al. (1985) J Immunol Methods 77(2):305-19.

Row | Binder | Kd [nM]
26 | B1 | 0.13
27 | B3 | 0.12
28 | B4 | 0.12
29 | B5 | 0.12

Biological target: T2, Human CD100
Assay: affinity testing, method and unit not printed in Example 10 (nM as in Table 3)

Row | Binder | Kd [nM]
30 | B12 | 0.08
31 | B13 | 0.07
32 | B14 | 0.04
33 | B15 | 0.06
34 | B16 | 0.08
35 | B17 | 0.09

Biological target: T2, Human CD100
Assay: affinity testing, method and unit not printed in Example 10 (nM as in Table 3); mutant value, before the parentheses
Remark: another data set of the same source

Row | Binder | Kd [nM]
36 | B18 | 0.09

Biological target: T1, human CD100-Fc
Assay: competition ELISA on CD100-Fc: BD16 titrated against 5 ng/ml MAb 657, bound MAb 657 detected with anti-human Kappa HRP
Protocol: as §1

Row | Binder | IC50 (read off the curve) [µg/mL]
37 | B1 | ~0.03
